Experimental data reported in US20260242478A1 (published 2026).
Where no end group is shown, it is not given here.

How the values were obtained:
[1] = biological target: T1, PSMA Fab (biotinylated (site not stated)); assay: clonal phage ELISA on biotinylated PSMA Fab captured on neutravidin; anti-M13 HRP detection
T1 construct: Biotinylated PSMA Fab captured on neutravidin coated plates in the phage ELISA; also called Anti-PSMA Fab; 006 PSMA Fab

[2] = biological target: T1, PSMA Fab; assay: clonal phage ELISA on plate-bound PSMA Fab pre-incubated with PSMA antigen as competitor
Experimental: (§1) Clonal phage were harvested as crude supernatants and screened via standard ELISAs. […] Prior to the addition of clonal phage. wells were incubated with blocking buffer and PSMA antigen or blocking buffer alone. Without washing or aspirating, clonal phage supernatants were then added to the wells and incubated for a short time. Wells were then washed followed by detection of bound phage using a horse radish conjugated anti-M13 antibody.

[3] = biological target: T2, PSMA Fab (biotinylated (site not stated)); assay: clonal phage ELISA; biotinylated PSMA Fab on neutravidin plate, blocking buffer alone; anti-M13 HRP detection;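 also: crude clonal phage supernatants added without washing to wells pretreated with blocking buffer with or without PSMA antigen, short incubation, then washed before detecting bound phage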
T2 construct: The panning ELISA names only 'biotinylated PSMA Fab' captured on neutravidin coated plates; also called Anti-PSMA Fab; 006 PSMA Fab

[4] = biological target: T2, PSMA Fab; assay: clonal phage ELISA; biotinylated PSMA Fab on neutravidin plate, wells pre-incubated with PSMA antigen as competitor; anti-M13 HRP detection;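 also: crude clonal phage supernatants added to antigen-treated wells without a wash, incubated briefly, then bound phage read out via horse radish–conjugated anti-M13 antibody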
Experimental: as §1

[5] = biological target: T3, PSMA Fab; assay: clonal phage ELISA on biotinylated PSMA Fab captured on neutravidin plates, anti-M13 HRP detection;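 also: crude clonal phage supernatants tested, before phage were added, wells were pretreated with PSMA antigen in blocking buffer or with blocking buffer only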
T3 construct: In the phage ELISA the PSMA Fab was biotinylated and captured on neutravidin coated plates; also called Anti-PSMA Fab; 006 PSMA Fab
Experimental: as §1

[6] = biological target: T4, PSMA Fab; assay: phage ELISA, clonal phage on biotinylated PSMA Fab captured on neutravidin plate, anti-M13 HRP detection;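 also: crude clonal phage supernatants added to wells preincubated with PSMA antigen in blocking buffer or with blocking buffer only, giving a competition and a no-competitor control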
T4 construct: In the phage ELISA the PSMA Fab was biotinylated and captured on neutravidin coated plates; also called anti-PSMA Fab; 006 PSMA Fab
Experimental: as §1

[7] = biological target: T4, PSMA Fab; assay: phage ELISA, clonal phage on captured PSMA Fab pre-incubated with PSMA antigen as competitor, anti-M13 HRP detection
Experimental: as §1

B1: Phage-3216 (peptide)
peptide: VEPLCVPSWMCQGI
notes: not shown: pIII filament protein of the bacteriophage
- phage binding ELISA signal [1]: 1.97
- phage binding ELISA signal [2]: 0.076

B2: Phage-3217 (peptide)
peptide: IELFCKPAWMCDGF
notes: as for B1
- phage binding ELISA signal [1]: 1.97
- phage binding ELISA signal [2]: 0.111

B3: Phage-3218 (peptide)
peptide: DVHLCKPSWMCAGF
modifications: cysteine pairing not given here; also: fused to phage pIII, sequence not given here
notes: as for B1
- phage binding ELISA signal [1]: 1.96
- phage binding ELISA signal [2]: 0.0706

B4: Phage-3219 (peptide)
peptide: DQVMCKPIWMCEGF
notes: as for B1
- phage binding ELISA signal [1]: 1.96
- phage binding ELISA signal [2]: 0.0928

B5: Phage-3220 (peptide)
peptide: IPRACIPAWMCQGF
notes: as for B1
- phage binding ELISA signal [1]: 1.96
- phage binding ELISA signal [2]: 0.101

B6: Phage-3221 (peptide)
peptide: LQILCKPQWMCEGL
notes: as for B1
- phage binding ELISA signal [1]: 1.96
- phage binding ELISA signal [2]: 0.0882

B7: Phage-3222 (peptide)
peptide: MELKCVPKWMCAGF
modifications: cysteine pairing not given here; also: fused to phage pIII, sequence not given here
notes: as for B1
- phage binding ELISA signal [1]: 1.96
- phage binding ELISA signal [2]: 0.0684

B8: Phage-3223 (peptide)
peptide: PQWMCKPEWMCNGF
notes: as for B1
- phage binding ELISA signal [1]: 1.96
- phage binding ELISA signal [2]: 0.0807

B9: Phage-3224 (peptide)
peptide: ITALCKPAWMCDGF
notes: as for B1
- phage binding ELISA signal [1]: 1.96
- phage binding ELISA signal [2]: 0.109

B10: Phage-3225 (peptide)
peptide: GEVLCRPIWMCNGF
notes: as for B1
- phage binding ELISA signal [1]: 1.95
- phage binding ELISA signal [2]: 0.123

Binder: LTVLCEPAWMCVGF (also called Peptide-180 library clone) [Phage-3226]
- Phage binding ELISA signal, Anti-PSMA Fab [3]: 1.95
- Phage binding ELISA signal, Anti-PSMA Fab with PSMA antigen [4]: 0.0827

Binder: PIVKCSPAWMCSGF (also called Peptide-180 library clone) [Phage-3227]
- Phage binding ELISA signal, Anti-PSMA Fab [3]: 1.95
- Phage binding ELISA signal, Anti-PSMA Fab with PSMA antigen [4]: 0.0757

Binder: VGHVCLPPWMCTGF (also called Peptide-180 library clone) [Phage-3228]
- Phage binding ELISA signal, Anti-PSMA Fab [3]: 1.95
- Phage binding ELISA signal, Anti-PSMA Fab with PSMA antigen [4]: 0.0697

Binder: ITPLCSPAWMCQGL (also called Peptide-180 library clone) [Phage-3229]
- Phage binding ELISA signal, Anti-PSMA Fab [3]: 1.95
- Phage binding ELISA signal, Anti-PSMA Fab with PSMA antigen [4]: 0.055

Binder: LGIYCVPEWMCQGF (also called Peptide-180 library clone) [Phage-3230]
- Phage binding ELISA signal, Anti-PSMA Fab [3]: 1.95
- Phage binding ELISA signal, Anti-PSMA Fab with PSMA antigen [4]: 0.0818

Binder: VTAYCVPPWMCAVF (also called Peptide-180 library clone) [Phage-3231]
- Phage binding ELISA signal, Anti-PSMA Fab [3]: 1.95
- Phage binding ELISA signal, Anti-PSMA Fab with PSMA antigen [4]: 0.102

Binder: IVKACKPEWMCVGF (also called Peptide-180 library clone) [Phage-3232]
- Phage binding ELISA signal, Anti-PSMA Fab [3]: 1.95
- Phage binding ELISA signal, Anti-PSMA Fab with PSMA antigen [4]: 0.0754

B11: Phage-3233 (peptide)
peptide: PYAMCEPAWMCSGF
modifications: cysteine pairing not given here; also: fused to phage pIII, fusion site not given here
notes: also called Peptide-180 library clone
- Phage binding ELISA signal, Anti-PSMA Fab [3]: 1.95
- Phage binding ELISA signal, Anti-PSMA Fab with PSMA antigen [4]: 0.0697

Binder: DGIRCVPNWMCVGF (also called Peptide-180 library clone) [Phage-3234]
- Phage binding ELISA signal, Anti-PSMA Fab [3]: 1.95
- Phage binding ELISA signal, Anti-PSMA Fab with PSMA antigen [4]: 0.0969

Binder: VERLCMPEWMCLGF (also called Peptide-180 library clone) [Phage-3235]
- Phage binding ELISA signal, Anti-PSMA Fab [3]: 1.95
- Phage binding ELISA signal, Anti-PSMA Fab with PSMA antigen [4]: 0.126

B12: Phage-3236 (peptide)
peptide: PLPMCVPAWMCAGF
modifications: cysteine pairing not given here; also: fused to phage pIII, fusion site not given here
notes: as for B11
- Phage binding ELISA signal, Anti-PSMA Fab [3]: 1.95
- Phage binding ELISA signal, Anti-PSMA Fab with PSMA antigen [4]: 0.133

B13: Phage-3237 (peptide)
peptide: EYHKCIPEWMCAGF
modifications: cysteine pairing not given here; also: fused to phage pIII, fusion site not given here
notes: as for B11
- Phage binding ELISA signal, Anti-PSMA Fab [3]: 1.94
- Phage binding ELISA signal, Anti-PSMA Fab with PSMA antigen [4]: 0.0924

Binder: WEHRCTPEWMCTGF (also called Peptide-180 library clone) [Phage-3238]
- Phage binding ELISA signal, Anti-PSMA Fab [3]: 1.94
- Phage binding ELISA signal, Anti-PSMA Fab with PSMA antigen [4]: 0.0937

Binder: TEVMCRPLWMCAGF [Phage-3295]
- Phage binding ELISA signal, Anti-PSMA Fab [5]: 1.89

Binder: VVIQCQPAWMCDGF [Phage-3296]
- Phage binding ELISA signal, Anti-PSMA Fab [5]: 1.88

Binder: VAVMCRPAWMCYGF [Phage-3297]
- Phage binding ELISA signal, Anti-PSMA Fab [5]: 1.88

Binder: ETFKCVPEWMCTGL [Phage-3298]
- Phage binding ELISA signal, Anti-PSMA Fab [5]: 1.88

Binder: HDAMCKPAWMCAGF [Phage-3299]
- Phage binding ELISA signal, Anti-PSMA Fab [5]: 1.88

Binder: VESMCKPAWMCIGF [Phage-3300]
- Phage binding ELISA signal, Anti-PSMA Fab [5]: 1.88

Binder: MPPVCIPRWMCEGF [Phage-3301]
- Phage binding ELISA signal, Anti-PSMA Fab [5]: 1.88

Binder: MLLQCKPSWMCAGF [Phage-3302]
- Phage binding ELISA signal, Anti-PSMA Fab [5]: 1.87

Binder: GWPVCVPPWMCDGF [Phage-3303]
- Phage binding ELISA signal, Anti-PSMA Fab [5]: 1.87

Binder: EHYACKPEWMCAGF (cysteine pairing not given here; also: fused to pIII of bacteriophage) [Phage-3304]
- Phage binding ELISA signal, Anti-PSMA Fab [5]: 1.87

Binder: HSALCIPSWMCQGF [Phage-3305]
- Phage binding ELISA signal, Anti-PSMA Fab [5]: 1.87

Binder: VDRFCEPIWMCIGF [Phage-3306]
- Phage binding ELISA signal, Anti-PSMA Fab [5]: 1.87

Binder: EMFRCTPEWMCAGL (cysteine pairing not given here; also: fused to pIII of bacteriophage) [Phage-3307]
- Phage binding ELISA signal, Anti-PSMA Fab [5]: 1.87

Binder: TEILCVPEWMCIGL [Phage-3392]
- Phage binding ELISA signal, Anti-PSMA Fab [6]: 1.8
- Phage binding ELISA signal, Anti-PSMA Fab in presence of PSMA [7]: 0.0705

Binder: ENHYCRPAWMCNGF [Phage-3393]
- Phage binding ELISA signal, Anti-PSMA Fab [6]: 1.8
- Phage binding ELISA signal, Anti-PSMA Fab in presence of PSMA [7]: 0.106

Binder: ITVICKPAWMCEFL [Phage-3394]
- Phage binding ELISA signal, Anti-PSMA Fab [6]: 1.8
- Phage binding ELISA signal, Anti-PSMA Fab in presence of PSMA [7]: 0.0613

Binder: ASVLCVPAWMCSGF [Phage-3395]
- Phage binding ELISA signal, Anti-PSMA Fab [6]: 1.8
- Phage binding ELISA signal, Anti-PSMA Fab in presence of PSMA [7]: 0.0808

Binder: GFPWCEPQWMCIGF [Phage-3396]
- Phage binding ELISA signal, Anti-PSMA Fab [6]: 1.8
- Phage binding ELISA signal, Anti-PSMA Fab in presence of PSMA [7]: 0.114

Binder: FGIYCVPEWMCTGL [Phage-3397]
- Phage binding ELISA signal, Anti-PSMA Fab [6]: 1.8
- Phage binding ELISA signal, Anti-PSMA Fab in presence of PSMA [7]: 0.0891

Binder: IELMCRPLWMCMGF [Phage-3398]
- Phage binding ELISA signal, Anti-PSMA Fab [6]: 1.8
- Phage binding ELISA signal, Anti-PSMA Fab in presence of PSMA [7]: 0.0966

Binder: TQALCKPAWMCKGF [Phage-3399]
- Phage binding ELISA signal, Anti-PSMA Fab [6]: 1.8
- Phage binding ELISA signal, Anti-PSMA Fab in presence of PSMA [7]: 0.0703

Binder: FERLCIPEWMCSAF [Phage-3400]
- Phage binding ELISA signal, Anti-PSMA Fab [6]: 1.8
- Phage binding ELISA signal, Anti-PSMA Fab in presence of PSMA [7]: 0.102
